Assay results published in patent US20220332835A1 (SHANGHAITECH UNIVERSITY, published 2022).

Legend:
[1] = molecular target: pepN48 (peptide of the 48 N-terminal extracellular amino acids of human CXCR2) (human); assay: SPR, Biacore
[2] = molecular target: hCXCR2-mCherry (human CXCR2 fused with mCherry, on U2OS cells) (human) (UniProt P25025); assay: flow cytometry, U2OS cells with hCXCR2-mCherry (ECD-A axis), antibody staining on the FITC-A axis; other quadrants UL 1.80%, LL 33.80%, LR 18.24%
[3] = molecular target: T1, pepN48 (peptide of the 48 N-terminal extracellular amino acids of human CXCR2) (human, biotin labeled on its N-terminus (panning, ELISA, SPR)); assay: SPR
T1 construct: Synthetic; also called N-terminus of CXCR2
T1 peptide: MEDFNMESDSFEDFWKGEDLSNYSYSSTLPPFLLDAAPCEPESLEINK

[4] = molecular target: T2, human CXCR2 (hCXCR2) on cells (human, UniProt P25025 1-360); assay: cell-based or functional assay
T2 sequence (looked up): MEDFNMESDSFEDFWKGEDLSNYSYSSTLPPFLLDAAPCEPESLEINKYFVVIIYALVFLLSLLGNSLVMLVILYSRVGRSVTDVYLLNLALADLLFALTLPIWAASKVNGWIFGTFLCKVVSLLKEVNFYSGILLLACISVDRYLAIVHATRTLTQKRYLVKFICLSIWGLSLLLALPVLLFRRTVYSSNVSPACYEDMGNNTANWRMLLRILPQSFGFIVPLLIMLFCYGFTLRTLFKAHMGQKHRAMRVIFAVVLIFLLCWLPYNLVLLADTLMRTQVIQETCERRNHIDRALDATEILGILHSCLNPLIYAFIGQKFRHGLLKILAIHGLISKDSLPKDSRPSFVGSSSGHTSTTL

rCXCR2-mCherry = molecular target: T3, rCXCR2-mCherry (rat, UniProt P35407 1-359); assay: FACS on transfected U2OS cells
T3 construct: whole, on cells; Overexpressed in U2OS cells; also called CXCR2 of rat; not shown: mCherry fluorescent tag
T3 sequence (looked up): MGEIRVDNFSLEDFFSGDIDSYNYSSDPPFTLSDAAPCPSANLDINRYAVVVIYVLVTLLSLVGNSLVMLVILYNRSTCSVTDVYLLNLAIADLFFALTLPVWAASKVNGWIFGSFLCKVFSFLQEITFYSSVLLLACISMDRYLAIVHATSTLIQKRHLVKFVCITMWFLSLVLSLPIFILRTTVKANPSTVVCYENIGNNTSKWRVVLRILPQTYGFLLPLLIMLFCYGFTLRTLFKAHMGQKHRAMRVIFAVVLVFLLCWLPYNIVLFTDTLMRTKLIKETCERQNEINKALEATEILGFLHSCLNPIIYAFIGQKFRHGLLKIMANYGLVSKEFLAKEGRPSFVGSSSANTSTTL

rbCXCR2-mCherry = molecular target: T4, rbCXCR2-mCherry (rabbit, UniProt P35344 1-358); assay: FACS on transfected U2OS cells
T4 construct: whole, on cells; Overexpressed in U2OS cells; also called rabbitCXCR2; CXCR2 of rabbit; not shown: mCherry fluorescent tag
T4 sequence (looked up): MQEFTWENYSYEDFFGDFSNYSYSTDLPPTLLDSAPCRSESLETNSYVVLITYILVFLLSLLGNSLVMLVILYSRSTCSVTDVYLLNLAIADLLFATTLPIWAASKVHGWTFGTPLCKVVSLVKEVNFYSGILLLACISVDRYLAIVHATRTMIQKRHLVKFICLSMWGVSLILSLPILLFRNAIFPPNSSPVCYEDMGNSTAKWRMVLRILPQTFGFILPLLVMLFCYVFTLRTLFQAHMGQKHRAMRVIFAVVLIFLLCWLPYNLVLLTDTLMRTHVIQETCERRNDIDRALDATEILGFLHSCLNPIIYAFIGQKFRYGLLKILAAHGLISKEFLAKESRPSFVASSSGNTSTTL

[5] = molecular target: T1, pepN48 (peptide of the 48 N-terminal …); assay: SPR, Biacore T200; biotinylated pepN48 on SA chip;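 also: antibodies flowed in HBS-EP+ running buffer over the immobilized antigen at 0.5 to 10 nM, kinetic traces fitted to a protein-protein interaction model to derive constants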
hCXCR1-mCherry = molecular target: T5, hCXCR1-mCherry (human, UniProt P25024 1-350); assay: FACS on transfected U2OS cells (also immunofluorescence)
T5 construct: whole, on cells; Overexpressed in U2OS cells; not shown: mCherry fluorescent tag
T5 sequence (looked up): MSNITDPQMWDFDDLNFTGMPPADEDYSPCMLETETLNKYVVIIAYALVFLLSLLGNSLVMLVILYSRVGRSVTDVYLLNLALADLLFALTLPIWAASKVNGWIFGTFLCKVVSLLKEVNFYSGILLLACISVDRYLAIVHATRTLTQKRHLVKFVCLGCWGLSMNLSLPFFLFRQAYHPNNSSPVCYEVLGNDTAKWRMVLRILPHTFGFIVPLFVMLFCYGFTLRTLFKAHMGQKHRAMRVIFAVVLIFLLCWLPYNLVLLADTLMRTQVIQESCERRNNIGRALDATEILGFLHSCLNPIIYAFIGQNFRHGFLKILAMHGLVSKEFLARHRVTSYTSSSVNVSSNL

mCXCR2-mCherry = molecular target: T6, mCXCR2-mCherry (mouse, UniProt P35343 1-359); assay: as above
T6 construct: whole, on cells; Overexpressed in U2OS cells; also called CXCR2 of mouse; not shown: mCherry fluorescent tag
T6 sequence (looked up): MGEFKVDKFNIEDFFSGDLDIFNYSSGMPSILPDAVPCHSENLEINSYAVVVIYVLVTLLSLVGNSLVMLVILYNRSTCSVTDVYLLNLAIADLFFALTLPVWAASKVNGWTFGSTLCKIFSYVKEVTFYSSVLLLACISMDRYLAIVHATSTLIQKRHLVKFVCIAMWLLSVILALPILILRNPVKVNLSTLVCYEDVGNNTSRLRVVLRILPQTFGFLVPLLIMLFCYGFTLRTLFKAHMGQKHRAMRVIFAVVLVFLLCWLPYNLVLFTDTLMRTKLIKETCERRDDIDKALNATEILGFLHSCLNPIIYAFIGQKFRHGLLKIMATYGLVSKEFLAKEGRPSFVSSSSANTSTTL

B1: H8 (abN48) scFv combinatorial antibody (scFv, part only; not given: linker, domain order, IgG1 Fc, V domains shown, not shown: another chain or arm of the molecule; a dimerising Fc or GST; small tags and cut ends)
VH: QVQLVQSGAEVKKPGSSVKVSCKASGGTLSSYAISWVRQAPGQGPEWMGWINPNSGGTNYAQKFQGRVTMTRDTSISTAYMELSRLRPDDTAVYYCASGYCSSTSCYDYWGQGTLVTVSS
VL: QAVLTQPSSLSASPGASVSLTCTLRSGINVGAYRIYWYQQKPGSPPQFLLRYKSDSDKQQGSGVPSRFSGSRDASANAGILLISGLRSEDEADYYCAIWHSSAWVFGGGTQLTVL
- Kd [1]: 2.6 nM
- percent of cells in quadrant Q1-UR (FITC-A high and ECD-A high) [2]: 46.2%

B2: abN48-2-IgG1 (antibody, V domains shown)
VH: QVQLVQSGAEVKKPGSSVKVSCKASGGTLSSYAISWVRQAPGQGPEWMGWINPNSGGTNYAQKFQGRVTMTRDTSISTAYMELSRLRPDDTAVYYCASGYCSRTRCYDYWGQGTLVTVSS
VL: QAVLTQPSSLSASPGASVSLTCTLRSGINVGAYRIYWYQQKPGSPPQFLLRYKSDSDKQQGSGVPSRFSGSRDASANAGILLISGLRSEDEADYYCAIWHSSAWVFGGGTQLTVLG
notes: Full-length human IgG1, lambda light chain; also called ab48-2-IgG1; abN48-2-IgG2 (as misprinted)
- fold improvement of KD against abN48-IgG1 [3]: 100 fold
- inhibition of GROα-induced (EC80) β-arrestin recruitment, Tango assay, apparent IC50 [4]: 0.37 nM
- inhibition of GROα-induced (EC90) Ca2+ influx, FLIPR, IC50 [4]: 110 nM
- inhibition of IL8-induced (EC80) β-arrestin recruitment, Tango assay, apparent IC50 [4]: 0.9 nM
- inhibition of IL8-induced (EC90) Ca2+ influx, FLIPR, IC50 [4]: 44 nM
- partial agonist effect on Ca2+ influx, FLIPR, apparent EC50 [4]: 310 nM
- binding result (rCXCR2-mCherry): no binding (tested: 2 µg/mL)
- binding result (rbCXCR2-mCherry): no binding (tested: 2 µg/mL)
- Kd [5]: 7.2 pM
- binding result (hCXCR1-mCherry): no binding (tested: 2 µg/mL)
- binding result (mCXCR2-mCherry): no binding (tested: 2 µg/mL)
